Assay results reported in publication PMC8704484.

Columns and labels:
BLM-core helicase [1] = target: T1, BLM-core helicase (human, UniProt P54132 642-1290); experiment: fluorescence anisotropy
Rep helicase [2] = target: T2, Rep helicase (E. coli, UniProt P09980 1-673); experiment: fluorescence anisotropy
DHX36 [3] = target: T3, DHX36 (Bos, UniProt Q05B79 1-1010); experiment: fluorescence anisotropy
T3 sequence: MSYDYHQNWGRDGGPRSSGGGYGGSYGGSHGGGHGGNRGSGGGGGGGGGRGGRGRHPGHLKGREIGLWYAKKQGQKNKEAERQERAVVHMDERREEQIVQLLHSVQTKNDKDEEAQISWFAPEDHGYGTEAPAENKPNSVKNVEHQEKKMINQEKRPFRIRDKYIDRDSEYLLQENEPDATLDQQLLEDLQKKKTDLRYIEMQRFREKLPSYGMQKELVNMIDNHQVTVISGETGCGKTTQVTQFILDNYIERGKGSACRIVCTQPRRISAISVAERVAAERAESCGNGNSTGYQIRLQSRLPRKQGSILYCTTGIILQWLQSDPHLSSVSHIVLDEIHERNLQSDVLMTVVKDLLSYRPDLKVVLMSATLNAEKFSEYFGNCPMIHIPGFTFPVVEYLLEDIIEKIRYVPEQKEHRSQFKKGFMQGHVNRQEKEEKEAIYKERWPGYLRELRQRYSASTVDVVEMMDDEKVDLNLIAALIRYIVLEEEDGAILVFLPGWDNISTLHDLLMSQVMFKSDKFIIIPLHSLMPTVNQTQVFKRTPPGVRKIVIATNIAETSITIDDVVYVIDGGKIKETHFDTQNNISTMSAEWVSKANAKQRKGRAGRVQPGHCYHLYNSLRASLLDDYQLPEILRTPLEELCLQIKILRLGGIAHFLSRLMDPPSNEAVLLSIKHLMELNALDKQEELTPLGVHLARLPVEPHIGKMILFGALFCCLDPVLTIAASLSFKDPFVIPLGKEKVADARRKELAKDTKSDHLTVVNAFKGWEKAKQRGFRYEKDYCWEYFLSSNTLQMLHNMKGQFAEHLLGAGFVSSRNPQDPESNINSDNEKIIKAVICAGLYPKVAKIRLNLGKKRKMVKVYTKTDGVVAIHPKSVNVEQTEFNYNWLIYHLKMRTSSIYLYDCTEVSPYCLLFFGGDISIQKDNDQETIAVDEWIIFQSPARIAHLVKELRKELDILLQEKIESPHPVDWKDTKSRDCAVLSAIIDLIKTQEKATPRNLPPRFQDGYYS

RecQ helicase [4] = target: T4, RecQ helicase (E. coli, UniProt P15043 1-609); experiment: fluorescence anisotropy
[5] = target: RPA (RPA1-RPA2-RPA3 heterotrimer) (human, UniProt P27694;P15927;P35244 1-616;1-270;1-121); experiment: smFRET
Rep helicase [6] = target: T2, Rep helicase; experiment: smFRET
DHX36 [7] = target: T3, DHX36; experiment: smFRET
BLM-core helicase [8] = target: T1, BLM-core helicase; experiment: smFRET
RecQ helicase [9] = target: T4, RecQ helicase; experiment: smFRET

T1 sequence (P54132 642-1290): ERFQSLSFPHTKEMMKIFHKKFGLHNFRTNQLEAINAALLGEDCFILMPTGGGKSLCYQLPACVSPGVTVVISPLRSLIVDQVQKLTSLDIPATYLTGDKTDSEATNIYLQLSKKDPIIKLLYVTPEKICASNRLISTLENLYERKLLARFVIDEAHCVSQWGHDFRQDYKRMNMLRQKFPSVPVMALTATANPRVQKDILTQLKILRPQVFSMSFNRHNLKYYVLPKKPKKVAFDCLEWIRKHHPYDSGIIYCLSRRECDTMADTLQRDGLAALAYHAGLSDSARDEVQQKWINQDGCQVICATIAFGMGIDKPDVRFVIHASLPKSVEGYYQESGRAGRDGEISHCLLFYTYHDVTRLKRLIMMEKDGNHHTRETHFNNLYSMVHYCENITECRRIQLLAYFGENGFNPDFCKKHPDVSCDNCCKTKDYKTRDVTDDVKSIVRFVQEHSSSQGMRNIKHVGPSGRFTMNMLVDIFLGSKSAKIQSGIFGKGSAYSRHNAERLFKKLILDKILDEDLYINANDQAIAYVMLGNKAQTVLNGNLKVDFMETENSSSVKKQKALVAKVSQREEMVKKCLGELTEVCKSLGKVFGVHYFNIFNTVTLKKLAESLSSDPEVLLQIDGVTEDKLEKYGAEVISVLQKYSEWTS
T2 sequence (P09980 whole entry): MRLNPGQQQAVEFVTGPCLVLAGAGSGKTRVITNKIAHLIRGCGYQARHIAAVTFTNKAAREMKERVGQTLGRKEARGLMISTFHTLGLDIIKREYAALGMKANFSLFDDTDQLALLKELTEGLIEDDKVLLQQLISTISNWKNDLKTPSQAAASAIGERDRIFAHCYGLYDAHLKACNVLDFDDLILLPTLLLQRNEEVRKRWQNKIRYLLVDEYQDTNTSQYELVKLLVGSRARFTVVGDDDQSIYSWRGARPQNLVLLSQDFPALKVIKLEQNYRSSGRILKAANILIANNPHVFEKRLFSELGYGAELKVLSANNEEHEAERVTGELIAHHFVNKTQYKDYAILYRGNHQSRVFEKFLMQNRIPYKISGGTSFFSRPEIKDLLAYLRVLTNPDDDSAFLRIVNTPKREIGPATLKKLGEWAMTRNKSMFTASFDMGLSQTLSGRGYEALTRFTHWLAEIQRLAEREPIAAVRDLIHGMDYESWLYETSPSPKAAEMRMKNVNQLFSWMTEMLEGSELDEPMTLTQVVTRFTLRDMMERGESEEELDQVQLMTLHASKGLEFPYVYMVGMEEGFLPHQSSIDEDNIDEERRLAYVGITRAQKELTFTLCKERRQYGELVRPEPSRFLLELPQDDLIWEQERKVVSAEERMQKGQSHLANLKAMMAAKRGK
T4 sequence (P15043 whole entry): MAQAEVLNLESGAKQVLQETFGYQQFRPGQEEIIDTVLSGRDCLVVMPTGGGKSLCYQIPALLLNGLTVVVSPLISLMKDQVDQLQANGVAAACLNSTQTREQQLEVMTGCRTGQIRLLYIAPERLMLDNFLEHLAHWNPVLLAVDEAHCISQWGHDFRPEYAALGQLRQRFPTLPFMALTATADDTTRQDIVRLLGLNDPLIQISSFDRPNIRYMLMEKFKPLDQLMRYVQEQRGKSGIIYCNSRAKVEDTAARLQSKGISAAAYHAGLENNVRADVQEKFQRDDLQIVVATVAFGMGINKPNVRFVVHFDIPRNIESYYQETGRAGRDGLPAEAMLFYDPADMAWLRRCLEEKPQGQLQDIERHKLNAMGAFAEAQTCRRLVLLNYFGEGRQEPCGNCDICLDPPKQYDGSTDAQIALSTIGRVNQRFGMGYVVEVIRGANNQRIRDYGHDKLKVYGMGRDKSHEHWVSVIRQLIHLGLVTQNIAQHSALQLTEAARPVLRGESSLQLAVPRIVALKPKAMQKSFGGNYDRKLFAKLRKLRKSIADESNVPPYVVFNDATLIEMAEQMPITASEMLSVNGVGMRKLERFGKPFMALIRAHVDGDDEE
RPA (RPA1-RPA2-RPA3 heterotrimer), sequence (P27694 whole entry, chain 1 of 3): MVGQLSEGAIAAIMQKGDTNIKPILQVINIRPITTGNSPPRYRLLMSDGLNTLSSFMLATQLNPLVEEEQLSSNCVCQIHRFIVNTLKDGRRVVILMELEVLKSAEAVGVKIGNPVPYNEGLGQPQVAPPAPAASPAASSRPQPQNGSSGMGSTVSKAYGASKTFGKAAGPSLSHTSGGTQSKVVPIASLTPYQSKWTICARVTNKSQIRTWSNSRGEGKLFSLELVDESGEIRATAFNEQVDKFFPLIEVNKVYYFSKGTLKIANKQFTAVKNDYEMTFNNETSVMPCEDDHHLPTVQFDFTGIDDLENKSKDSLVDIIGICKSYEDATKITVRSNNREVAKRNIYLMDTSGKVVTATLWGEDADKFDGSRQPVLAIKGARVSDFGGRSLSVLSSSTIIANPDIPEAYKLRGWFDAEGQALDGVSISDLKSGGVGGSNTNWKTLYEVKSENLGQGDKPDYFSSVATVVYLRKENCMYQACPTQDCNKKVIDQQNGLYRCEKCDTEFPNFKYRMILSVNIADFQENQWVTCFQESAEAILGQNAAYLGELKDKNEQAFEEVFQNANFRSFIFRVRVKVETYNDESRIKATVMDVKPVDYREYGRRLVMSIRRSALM
RPA (RPA1-RPA2-RPA3 heterotrimer), sequence (P15927 whole entry, chain 2 of 3): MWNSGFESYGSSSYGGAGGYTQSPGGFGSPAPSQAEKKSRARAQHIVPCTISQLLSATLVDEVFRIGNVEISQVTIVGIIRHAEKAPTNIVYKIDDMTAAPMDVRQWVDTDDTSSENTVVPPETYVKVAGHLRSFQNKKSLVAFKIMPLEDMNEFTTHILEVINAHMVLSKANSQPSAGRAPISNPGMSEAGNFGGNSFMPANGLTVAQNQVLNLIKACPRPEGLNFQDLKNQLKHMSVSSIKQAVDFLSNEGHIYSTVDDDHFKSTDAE
RPA (RPA1-RPA2-RPA3 heterotrimer), sequence (P35244 whole entry, chain 3 of 3): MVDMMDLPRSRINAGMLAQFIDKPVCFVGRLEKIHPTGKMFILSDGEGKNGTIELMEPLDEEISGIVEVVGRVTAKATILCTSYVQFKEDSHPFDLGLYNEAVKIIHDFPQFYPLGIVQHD

B1: F-Bcl2-IM (structured_DNA)
DNA: CCCGCCCCCTTCCTCCCGCGCCC
In the case of B1, the Kd (BLM-core helicase [1]) is reported as 22 nM, the binding result (Rep helicase [2]) is reported as “binds” and the binding result (DHX36 [3]) is reported as “binds”. B1: binds (RecQ helicase [4]).

B2: F-Bcl2-G4 (structured_DNA)
DNA: GGGCGCGGGAGGAAGGGGGCGGG
B2 gave a Kd (BLM-core helicase [1]) of 97.7 nM.

B3: d27Bcl2-Mut / Stem (mixed)
DNA 1: GCGTGGCACCGGTAATAGGAAATAGGATTCTCTCTCTCTTCCTCTCTCGCTC
DNA 2: TCCTATTTCCTATTACCGGTGCCACGC
B3: binds [5].

B4: d27Bcl2-IM / Stem (no loading tail) (mixed)
DNA 1: GCGTGGCACCGGTAATAGGAAATAGGATTCCCGCCCCCTTCCTCCCGCGCCCT
DNA 2: TCCTATTTCCTATTACCGGTGCCACGC
B4: binds (Rep helicase [6]); binds (DHX36 [7]); binds (BLM-core helicase [8]). B4: binds (RecQ helicase [9]).

B5: Duplex (24nt-F/24nt) (dsDNA)
DNA 1: GCCCTGGTGCCGACCAACGAAGGT
DNA 2: ACCTTCGTTGGTCGGCACCAGGGC
B5: no binding (BLM-core helicase [1]).
